Measured values reported in patent publication US20240279331A1 (University of California, published 2024).
Changes are numbered by the printed parent chain.

T1: NCR3 (antigen of the ELISA in the affinity-maturation table) (human, UniProt O14931 19-135, limits assumed)
T1 construct: also called Natural Cytotoxicity Triggering Receptor 3
T1 sequence (looked up): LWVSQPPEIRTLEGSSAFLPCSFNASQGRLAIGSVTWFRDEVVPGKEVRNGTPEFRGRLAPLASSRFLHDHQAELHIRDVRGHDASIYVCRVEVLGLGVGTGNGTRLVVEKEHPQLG

T2: NCR3 on cell (on-cell binding in the affinity-maturation table) (human, UniProt O14931 19-201, limits assumed)
T2 construct: On cell
T2 sequence (looked up): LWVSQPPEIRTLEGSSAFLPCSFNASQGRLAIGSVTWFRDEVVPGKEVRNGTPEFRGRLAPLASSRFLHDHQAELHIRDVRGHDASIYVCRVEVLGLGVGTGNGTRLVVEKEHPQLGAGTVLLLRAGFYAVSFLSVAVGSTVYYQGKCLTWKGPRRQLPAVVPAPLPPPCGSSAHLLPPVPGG

T3: CD244 extracellular domain fused to a generic transmembrane domain, on tetracycline-inducible FlpIn cells (UniProt Q9BZW8 22-229)
T3 construct: extracellular domain; not shown: transmembrane domain of platelet-derived growth factor (so in the source) with a HA tag
T3 sequence (looked up): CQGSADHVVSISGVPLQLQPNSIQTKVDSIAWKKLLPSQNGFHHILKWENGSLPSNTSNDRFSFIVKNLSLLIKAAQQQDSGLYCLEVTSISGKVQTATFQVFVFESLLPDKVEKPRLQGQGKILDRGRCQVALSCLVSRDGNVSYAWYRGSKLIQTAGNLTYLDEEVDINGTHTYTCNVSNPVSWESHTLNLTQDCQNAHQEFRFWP

T4: TNFSF4 extracellular domain fused to a generic transmembrane domain, on tetracycline-inducible FlpIn cells (UniProt P23510 51-183)
T4 construct: extracellular domain; also called OX40L; not shown: transmembrane domain of platelet-derived growth factor (so in the source) with a HA tag
T4 sequence (looked up): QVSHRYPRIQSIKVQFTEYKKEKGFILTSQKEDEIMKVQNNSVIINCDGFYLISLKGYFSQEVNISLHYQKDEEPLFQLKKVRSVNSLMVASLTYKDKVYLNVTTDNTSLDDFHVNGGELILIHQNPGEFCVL

B1: NCR3.18 Fab (Fab)
heavy: EVQLVESGGGLVQPGGSLRLSCAASGFNVSSSSIHWVRQAPGKGLEWVASISSSSGSTSYADSVKGRFTISADTSKNTAYLQMNSLRAEDTAVYYCARRISSYYMSYYDSFYYAGMDYWGQGTLVTVSSASTKGPSVFPLAPSSKSTSGGTAALGCLVKDYFPEPVTVSWNSGALTSGVHTFPAVLQSSGLYSLSSVVTVPSSSLGTQTYICNVNHKPSNTKVDKKVEPKSCDKTHT
light: DIQMTQSPSSLSASVGDRVTITCRASQSVSSAVAWYQQKPGKAPKLLIYSASSLYSGVPSRFSGSRSGTDFTLTISSLQPEDFATYYCQQSSSSLITFGQGTKVEIKRTVAAPSVFIFPPSDSQLKSGTASVVCLLNNFYPREAKVQWKVDNALQSGNSQESVTEQDSKDSTYSLSSTLTLSKADYEKHKVYACEVTHQGLSSPVTKSFNRGEC
notes: also called parental NCR3.18 clone; anti-NCR3 Fab #78
B2: NCR3.18.17 (Fab, V domains shown)
VH: EVQLVESGGGLVQPGGSLRLSCAASGFNVSSSSIHWVRQAPGKGLEWVASISSSSGSTSYADSVKGRFTISADTSKNTAYLQMNSLRAEDTAVYYCARRVGSYYMSYYDSFYYAGMDYWGQGTLVTVSS
VL: DIQMTQSPSSLSASVGDRVTITCRASQSVSSAVAWYQQKPGKAPKLLIYSASSLYSGVPSRFSGSRSGTDFTLTISSLQPEDFATYYCQQSSSSLITFGQGTKVEIKR
notes: substitutions derived against parental HC3
B3: NCR3.18.8 (Fab, V domains shown)
VH: B2 VH with V100I, G101S, M105V
VL: B2 VL
notes: as for B2
B4: NCR3.18.10 (Fab, V domains shown)
VH: B2 VH with V100K, G101S
VL: B2 VL
notes: as for B2
B5: NCR3.18.14 (Fab, V domains shown)
VH: B2 VH with V100T, S106T
VL: B2 VL
notes: as for B2
B6: NCR3.18.7 (Fab, V domains shown)
VH: B2 VH with V100I, G101S, M105I
VL: B2 VL
notes: as for B2
B7: NCR3.18.4 (Fab, V domains shown)
VH: B2 VH with V100I, G101S, Y103H
VL: B2 VL
notes: as for B2
B8: NCR3.18.19 (Fab, V domains shown)
VH: B2 VH with G101S, Y103P, M116L
VL: B2 VL
notes: as for B2
B9: NCR3.18.18 (Fab, V domains shown)
VH: B2 VH with G101S, Y103N
VL: B2 VL
notes: as for B2
B10: NCR3.18.3 (Fab, V domains shown)
VH: B2 VH with V100I, Y103I, M105R
VL: B2 VL
notes: as for B2
B11: NCR3.18.6 (Fab, V domains shown)
VH: B2 VH with V100I, G101S, Y103S
VL: B2 VL
notes: as for B2
B12: NCR3.18.1 (Fab, V domains shown)
VH: B2 VH with V100A, G101S, Y103R, Y104F, M105R
VL: B2 VL
notes: substitutions derived by comparing with parental HC3
B13: NCR3.18.11 (Fab, V domains shown)
VH: B2 VH with V100L, Y103R, M105R
VL: B2 VL
notes: as for B2
B14: NCR3.18.12 (Fab, V domains shown)
VH: B2 VH with V100R, G101A, M105K, S106T
VL: B2 VL
notes: as for B2
B15: NCR3.18.13 (Fab, V domains shown)
VH: B2 VH with V100R, G101S, S106T
VL: B2 VL
notes: as for B2
B16: NCR3.18.15 (Fab, V domains shown)
VH: B2 VH with V100T, G101S, Y103H, M105I
VL: B2 VL
notes: as for B2
B17: NCR3.18.9 (Fab, V domains shown)
VH: B2 VH with V100K, G101S, Y103S, M105W
VL: B2 VL
notes: as for B2

Target: T1, NCR3 (antigen of the ELISA in the …)
Assay: ELISA, Fab on NCR3

EC50 [nM] | Binder
1.63 | B1
0.58 | B2
0.95 | B3
1.11 | B4
0.57 | B5
1.23 | B6
2.29 | B7
0.38 | B8
2.2 | B9
0.68 | B10
1.38 | B11
0.78 | B12
0.77 | B13
0.53 | B14
0.98 | B15
2.98 | B16
0.51 | B17

Target: T2, NCR3 on cell (on-cell binding in the …)
Assay: on-cell binding, Fab on NCR3

EC50 [nM] | Binder
2.27 | B1
2.11 | B2
2.74 | B3
4.09 | B4
3.11 | B5
3.19 | B6
1.44 | B7
1.41 | B8
3.39 | B9
1.61 | B10
4.67 | B11
2.14 | B12
1.47 | B13
2.13 | B14
2.55 | B15
6.76 | B16
2.24 | B17

Target: T3, CD244 extracellular domain fused to a …
Assay: flow cytometry, Fab on tetracycline-inducible cell lines over-expressing each ECD (FIG. S5)
Experimental: (§1) To investigate the specificity of both activating and non-functional antibodies for their receptor targets, we developed a tetracycline-inducible cell line for each protein target—CD16, NCR1, NCR3, CD244, TNFRSF9, and TNFSF4. The ECDs of these proteins were fused to a generic transmembrane domain and were expressed upon tetracycline addition.
(§2) Titrations were performed on primary human NK cells or tetracycline induced overexpression cell lines as indicated. When tetracycline induced overexpression cell lines were used, cells were dosed with 10 μg/mL tetracycline for 2 days prior to staining. The starting concentration of each Fab or bispecific antibody was 1 μM, and serial 1:5 dilutions were performed. Antibodies were incubated with cells for 1 hr at 4° C., washed 2 times in 3% BSA in PBS pH 7.4, and stained for 30 min with an Alexafluor-647 conjugated goat anti-human IgG F(ab′)2 fragment (Jackson ImmunoResearch Laboratories) at a 1:50 dilution. After an additional 3 washes, cells were fixed and fluorescence was quantified using a CytoFLEX (Beckman Coulter). All flow cytometry data were analyzed using FlowJo software.

binding result | Binder
no binding | B1

Target: T4, TNFSF4 extracellular domain fused to a …
Assay: as above
Experimental: as §1, §2

binding result | Binder
no binding | B1

Target: T5, CD16 extracellular domain fused to a generic transmembrane domain, on tetracycline-inducible FlpIn cells (human, UniProt P08637 17-208)
T5 construct: extracellular domain; HEK293 FlpIn cells, expression on tetracycline addition; also called CD16 over expression cell line; CD16A; not shown: transmembrane domain of platelet-derived growth factor (so in the source) with a HA tag
Assay: as above
Experimental: as §1, §2

T5 sequence (P08637 17-208): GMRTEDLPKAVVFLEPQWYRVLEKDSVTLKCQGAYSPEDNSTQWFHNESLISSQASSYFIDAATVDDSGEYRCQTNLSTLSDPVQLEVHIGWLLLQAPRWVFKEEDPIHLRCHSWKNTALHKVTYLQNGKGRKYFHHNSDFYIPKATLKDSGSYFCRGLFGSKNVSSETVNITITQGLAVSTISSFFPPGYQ

binding result | Binder
no binding | B1

Target: T6, NCR1 extracellular domain fused to a generic transmembrane domain, on tetracycline-inducible FlpIn cells (human, UniProt O76036 22-258)
T6 construct: extracellular domain; HEK293 FlpIn cells, expression on tetracycline addition; also called NCR1 over expression cell line; not shown: transmembrane domain of platelet-derived growth factor (so in the source) with a HA tag
Assay: as above
Experimental: as §1, §2

T6 sequence (O76036 22-258): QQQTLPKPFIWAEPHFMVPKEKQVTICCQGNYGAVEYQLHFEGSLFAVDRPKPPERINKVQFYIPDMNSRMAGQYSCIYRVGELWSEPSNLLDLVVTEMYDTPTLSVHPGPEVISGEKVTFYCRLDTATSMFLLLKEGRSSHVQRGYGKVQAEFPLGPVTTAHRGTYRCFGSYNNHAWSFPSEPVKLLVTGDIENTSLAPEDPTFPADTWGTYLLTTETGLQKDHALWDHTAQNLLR

binding result | Binder
no binding | B1

Target: T7, TNFRSF9 extracellular domain fused to a generic transmembrane domain, on tetracycline-inducible FlpIn cells (UniProt Q07011 24-186)
T7 construct: extracellular domain; also called 4-1BB; not shown: transmembrane domain of platelet-derived growth factor (so in the source) with a HA tag
Assay: as above
Experimental: as §1, §2

binding result | Binder
no binding | B1
